Where two headings read alike, the source gives them in different places.
Legend:
HCV proteins = target: T1, HCV proteins (Hepatitis C virus genotype 1b, UniProt Q9WMX2); test: Validation by Y2H pairwise matrices; type: binding;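 further: yeast two-hybrid pairwise tests of interactions first found in Y2H screens of HCV bait proteins against human cDNA libraries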
T1 construct: expressed in transfected cells

[1] = target: T2, HCV ORFs (Gal4-DB fusions) (Hepatitis C virus genotype 1b, UniProt Q9WMX2); type: binding, HCV genotype 1b, isolate con1; conditions: human protein as prey
T2 construct: expressed in transfected cells; host or cells: Saccharomyces cerevisiae MAV203 (IMAP1) / AH109 (IMAP2)

[2] = test system: HCV ORFs (Gal4-DB fusions); type: binding, HCV genotype 1b, isolate con1; conditions: human protein listed by gene symbol; the value names the HCV protein it interacts with
[3] = validation of interaction with HCV protein NS3
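Wherever IMAP Y2H IMAP1 (number of IST) is given: yeast two-hybrid screens using HCV genotype 1b proteins fused to Gal4-DB as baits against prey cDNA libraries from human spleen and foetal brain, IMAP1 via transformation and IMAP2 via mating.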
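Wherever IMAP Y2H IMAP2 (number of IST) is given: yeast two-hybrid screens using HCV genotype 1b proteins fused to Gal4-DB as baits against prey cDNA libraries from human spleen and foetal brain, IMAP1 via transformation and IMAP2 via mating.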
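Wherever Interaction with viral protein is given: yeast two-hybrid screens using HCV genotype 1b proteins fused to Gal4-DB as baits against prey cDNA libraries from human spleen and foetal brain, IMAP1 via transformation and IMAP2 via mating.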

Molecule	Y2H matrices (HCV proteins; [3])	IMAP Y2H IMAP1 (number of IST) ([1]; HCV protein NS3 as bait)	Interaction with viral protein [2]	Y2H matrices (HCV proteins; validation of interaction with HCV protein CORE)	IMAP Y2H IMAP1 (number of IST) ([1]; HCV protein CORE as bait)	IMAP Y2H IMAP2 (number of IST) ([1]; HCV protein NS3 as bait)
KIF17 (protein, UniProt Q9P2E2 1-1029, looked up) Kinesin-like protein KIF17: MASEAVKVVVRCRPMNQRERELRCQPVVTVDCARAQCCIQNPGAADEPPKQFTFDGAYHVDHVTEQIYNEIAYPLVEGVTEGYNGTIFAYGQTGSGKSFTMQGLPDPPSQRGIIPRAFEHVFESVQCAENTKFLVRASYLEIYNEDVRDLLGADTKQKLELKEHPEKGVYVKGLSMHTVHSVAQCEHIMETGWKNRSVGYTLMNKDSSRSHSIFTISIEMSAVDERGKDHLRAGKLNLVDLAGSERQSKTGATGERLKEATKINLSLSALGNVISALVDGRCKHVPYRDSKLTRLLQDSLGGNTKTLMVACLSPADNNYDETLSTLRYANRAKNIRNKPRINEDPKDALLREYQEEIKKLKAILTQQMSPSSLSALLSRQVPPDPVQVEEKLLPQPVIQHDVEAEKQLIREEYEERLARLKADYKAEQESRARLEEDITAMRNSYDVRLSTLEENLRKETEAVLQVGVLYKAEVMSRAEFASSAEYPPAFQYETVVKPKVFSTTDTLPSDDVSKTQVSSRFAELPKVEPSKSEISLGSSESSSLEETSVSEAFPGPEEPSNVEVSMPTEESRSRYFLDECLGQEAAGHLLGEQNYLPQEEPQEVPLQGLLGLQDPFAEVEAKLARLSSTVARTDAPQADVPKVPVQVPAPTDLLEPSDARPEAEAADDFPPRPEVDLASEVALEVVRTAEPGVWLEAQAPVALVAQPEPLPATAGVKRESVGMEVAVLTDDPLPVVDQQQVLARLQLLEQQVVGGEQAKNKDLKEKHKRRKRYADERRKQLVAALQNSDEDSGDWVLLNVYDSIQEEVRAKSKLLEKMQRKLRAAEVEIKDLQSEFQLEKIDYLATIRRQERDSMLLQQLLEQVQPLIRRDCNYSNLEKILRESCWDEDNGFWKIPHPVITKTSLPVAVSTGPQNKPARKTSAADNGEPNMEDDRYRLMLSRSNSENIASNYFRSKRASQILSTDARKSLTHHNSPPGLSCPLSNNSAIPPTQAPEMPQPRPFRLESLDIPFTKAKRKKSKSNFGSEPL	+	2	NS3			
LDB1 (protein, UniProt Q86U70 2-411, looked up) LIM domain-binding protein 1: SVGCACPGCSSKSFKLYSPKEPPNGNAFPPFHPGTMLDRDVGPTPMYPPTYLEPGIGRHTPYGNQTDYRIFELNKRLQNWTEECDNLWWDAFTTEFFEDDAMLTITFCLEDGPKRYTIGRTLIPRYFRSIFEGGATELYYVLKHPKEAFHSNFVSLDCDQGSMVTQHGKPMFTQVCVEGRLYLEFMFDDMMRIKTWHFSIRQHRELIPRSILAMHAQDPQMLDQLSKNITRCGLSNSTLNYLRLCVILEPMQELMSRHKTYSLSPRDCLKTCLFQKWQRMVAPPAEPTRQQPSKRRKRKMSGGSTMSSGGGNTNNSNSKKKSPASTFALSSQVPDVMVVGEPTLMGGEFGDEDERLITRLENTQFDAANGIDDEDSFNNSPALGANSPWNSKPPSSQESKSENPTSQASQ	+	1	NS3			
LPXN (protein, UniProt O60711 1-386, looked up) Leupaxin: MEELDALLEELERSTLQDSDEYSNPAPLPLDQHSRKETNLDETSEILSIQDNTSPLPAQLVYTTNIQELNVYSEAQEPKESPPPSKTSAAAQLDELMAHLTEMQAKVAVRADAGKKHLPDKQDHKASLDSMLGGLEQELQDLGIATVPKGHCASCQKPIAGKVIHALGQSWHPEHFVCTHCKEEIGSSPFFERSGLAYCPNDYHQLFSPRCAYCAAPILDKVLTAMNQTWHPEHFFCSHCGEVFGAEGFHEKDKKPYCRKDFLAMFSPKCGGCNRPVLENYLSAMDTVWHPECFVCGDCFTSFSTGSFFELDGRPFCELHYHHRRGTLCHGCGQPITGRCISAMGYKFHPEHFVCAFCLTQLSKGIFREQNDKTYCQPCFNKLFPL			CORE	+	1	
L3MBTL3 (protein, UniProt Q96JM7 1-780, looked up) Lethal(3)malignant brain …: MTESASSTSGQEFDVFSVMDWKDGVGTLPGSDLKFRVNEFGALEVITDENEMENVKKATATTTWMVPTAQEAPTSPPSSRPVFPPAYWTSPPGCPTVFSEKTGMPFRLKDPVKVEGLQFCENCCQYGNVDECLSGGNYCSQNCARHIKDKDQKEERDVEEDNEEEDPKCSRKKKPKLSLKADTKEDGEERDDEMENKQDVRILRGSQRARRKRRGDSAVLKQGLPPKGKKAWCWASYLEEEKAVAVPAKLFKEHQSFPYNKNGFKVGMKLEGVDPEHQSVYCVLTVAEVCGYRIKLHFDGYSDCYDFWVNADALDIHPVGWCEKTGHKLHPPKGYKEEEFNWQTYLKTCKAQAAPKSLFENQNITVIPSGFRVGMKLEAVDKKNPSFICVATVTDMVDNRFLVHFDNWDESYDYWCEASSPHIHPVGWCKEHRRTLITPPGYPNVKHFSWDKYLEETNSLPAPARAFKVKPPHGFQKKMKLEVVDKRNPMFIRVATVADTDDHRVKVHFDGWNNCYDYWIDADSPDIHPVGWCSKTGHPLQPPLSPLELMEASEHGGCSTPGCKGIGHFKRARHLGPHSAANCPYSEINLNKDRIFPDRLSGEMPPASPSFPRNKRTDANESSSSPEIRDQHADDVKEDFEERTESEMRTSHEARGAREEPTVQQAQRRSAVFLSFKSPIPCLPLRWEQQSKLLPTVAGIPASKVSKWSTDEVSEFIQSLPGCEEHGKVFKDEQIDGEAFLLMTQTDIVKIMSIKLGPALKIFNSILMFKAAEKNSHNEL	+	4	NS3			8
LRRCC1 (protein, UniProt Q9C099 1-1032, looked up) Leucine-rich repeat and …: MEAAAAVVAAEAEVENEDGDSSCGDVCFMDKGLQSISELSLDSTLHAVNLHCNNISKIEAIDHIWNLQHLDLSSNQISRIEGLNTLTKLCTLNLSCNLITKVEGLEELINLTRLNVSYNHIDDLSGLIPLHGIKHKLRYIDLHSNRIDSIHHLLQCMVGLHFLTNLILEKDGDDNPVCRLPGYRAVILQTLPQLRILDCKNIFGEPVNLTEINSSQLQCLEGLLDNLVSSDSPLNISEDEIIDRMPVITAPIDELVPLEQFASTPSDAVLTSFMSVCQSSEPEKNNHENDLQNEIKLQKLDDQILQLLNETSNSIDNVLEKDPRPKRDTDITSESDYGNRKECNRKVPRRSKIPYDAKTIQTIKHHNKNYNSFVSCNRKMKPPYLKELYVSSSLANCPMLQESEKPKTEIIKVDQSHSEDNTYQSLVEQLDQEREKRWRAEQAENKLMDYIDELHKHANEKEDIHSLALLTTDRLKEIIFRERNSKGQLEVMVHKLQNEIKKLTVELMKAKDQQEDHLKHLRTLEKTLEKMERQKRQQQAAQIRLIQEVELKASAADREIYLLRTSLHREREQAQQLHQLLALKEQEHRKELETREFFTDADFQDALAKEIAKEEKKHEQMIKEYQEKIDVLSQQYMDLENEFRIALTVEARRFQDVKDGFENVATELAKSKHALIWAQRKENESSSLIKDLTCMVKEQKTKLAEVSKLKQETAANLQNQINTLEILIEDDKQKSIQIELLKHEKVQLISELAAKESLIFGLRTERKVWGHELAQQGSSLAQNRGKLEAQIESLSRENECLRKTNESDSDALRIKCKIIDDQTETIRKLKDCLQEKDEHIKRLQEKITEIEKCTQEQLDEKSSQLDEVLEKLERHNERKEKLKQQLKGKEVELEEIRKAYSTLNRKWHDKGELLCHLETQVKEVKEKFENKEKKLKAERDKSIELQKNAMEKLHSMDDAFKRQVDAIVEAHQAEIAQLANEKQKCIDSANLKVHQIEKEMRELLEETCKNKKTMEAKIKQLAFALNEIQQDM	+	1	NS3			
KIF7 (protein, UniProt Q2M1P5 1-1343, looked up) Kinesin-like protein KIF7: MGLEAQRLPGAEEAPVRVALRVRPLLPKELLHGHQSCLQVEPGLGRVTLGRDRHFGFHVVLAEDAGQEAVYQACVQPLLEAFFEGFNATVFAYGQTGSGKTYTMGEASVASLLEDEQGIVPRAMAEAFKLIDENDLLDCLVHVSYLEVYKEEFRDLLEVGTASRDIQLREDERGNVVLCGVKEVDVEGLDEVLSLLEMGNAARHTGATHLNHLSSRSHTVFTVTLEQRGRAPSRLPRPAPGQLLVSKFHFVDLAGSERVLKTGSTGERLKESIQINSSLLALGNVISALGDPQRRGSHIPYRDSKITRILKDSLGGNAKTVMIACVSPSSSDFDETLNTLNYASRAQNIRNRATVNWRPEAERPPEETASGARGPPRHRSETRIIHRGRRAPGPATASAAAAMRLGAECARYRACTDAAYSLLRELQAEPGLPGAAARKVRDWLCAVEGERSALSSASGPDSGIESASVEDQAAQGAGGRKEDEGAQQLLTLQNQVARLEEENRDFLAALEDAMEQYKLQSDRLREQQEEMVELRLRLELVRPGWGGPRLLNGLPPGSFVPRPHTAPLGGAHAHVLGMVPPACLPGDEVGSEQRGEQVTNGREAGAELLTEVNRLGSGSSAASEEEEEEEEPPRRTLHLRRNRISNCSQRAGARPGSLPERKGPELCLEELDAAIPGSRAVGGSKARVQARQVPPATASEWRLAQAQQKIRELAINIRMKEELIGELVRTGKAAQALNRQHSQRIRELEQEAEQVRAELSEGQRQLRELEGKELQDAGERSRLQEFRRRVAAAQSQVQVLKEKKQATERLVSLSAQSEKRLQELERNVQLMRQQQGQLQRRLREETEQKRRLEAEMSKRQHRVKELELKHEQQQKILKIKTEEIAAFQRKRRSGSNGSVVSLEQQQKIEEQKKWLDQEMEKVLQQRRALEELGEELHKREAILAKKEALMQEKTGLESKRLRSSQALNEDIVRVSSRLEHLEKELSEKSGQLRQGSAQSQQQIRGEIDSLRQEKDSLLKQRLEIDGKLRQGSLLSPEEERTLFQLDEAIEALDAAIEYKNEAITCRQRVLRASASLLSQCEMNLMAKLSYLSSSETRALLCKYFDKVVTLREEQHQQQIAFSELEMQLEEQQRLVYWLEVALERQRLEMDRQLTLQQKEHEQNMQLLLQQSRDHLGEGLADSRRQYEARIQALEKELGRYMWINQELKQKLGGVNAVGHSRGGEKRSLCSEGRQAPGNEDELHLAPELLWLSPLTEGAPRTREETRDLVHAPLPLTWKRSSLCGEEQGSPEELRQREAAEPLVGRVLPVGEAGLPWNFGPLSKPRRELRRASPGMIDVRKNPL	+	1	NS3			

— patent US20110091994A1, “Methods for Screening Compounds for Treating and/or Preventing an Hepatitis C Virus Infection” (priority 2008, published 2011)
